Five molecules from patent US20240336672A1 (INSTITUT PASTEUR, published 2024) can be followed below.

Substitutions are numbered along the chain they refer to.

T1: CoV-229E Spike ectodomain (229E-CoV, UniProt P15423 16-1113)
T1 chain: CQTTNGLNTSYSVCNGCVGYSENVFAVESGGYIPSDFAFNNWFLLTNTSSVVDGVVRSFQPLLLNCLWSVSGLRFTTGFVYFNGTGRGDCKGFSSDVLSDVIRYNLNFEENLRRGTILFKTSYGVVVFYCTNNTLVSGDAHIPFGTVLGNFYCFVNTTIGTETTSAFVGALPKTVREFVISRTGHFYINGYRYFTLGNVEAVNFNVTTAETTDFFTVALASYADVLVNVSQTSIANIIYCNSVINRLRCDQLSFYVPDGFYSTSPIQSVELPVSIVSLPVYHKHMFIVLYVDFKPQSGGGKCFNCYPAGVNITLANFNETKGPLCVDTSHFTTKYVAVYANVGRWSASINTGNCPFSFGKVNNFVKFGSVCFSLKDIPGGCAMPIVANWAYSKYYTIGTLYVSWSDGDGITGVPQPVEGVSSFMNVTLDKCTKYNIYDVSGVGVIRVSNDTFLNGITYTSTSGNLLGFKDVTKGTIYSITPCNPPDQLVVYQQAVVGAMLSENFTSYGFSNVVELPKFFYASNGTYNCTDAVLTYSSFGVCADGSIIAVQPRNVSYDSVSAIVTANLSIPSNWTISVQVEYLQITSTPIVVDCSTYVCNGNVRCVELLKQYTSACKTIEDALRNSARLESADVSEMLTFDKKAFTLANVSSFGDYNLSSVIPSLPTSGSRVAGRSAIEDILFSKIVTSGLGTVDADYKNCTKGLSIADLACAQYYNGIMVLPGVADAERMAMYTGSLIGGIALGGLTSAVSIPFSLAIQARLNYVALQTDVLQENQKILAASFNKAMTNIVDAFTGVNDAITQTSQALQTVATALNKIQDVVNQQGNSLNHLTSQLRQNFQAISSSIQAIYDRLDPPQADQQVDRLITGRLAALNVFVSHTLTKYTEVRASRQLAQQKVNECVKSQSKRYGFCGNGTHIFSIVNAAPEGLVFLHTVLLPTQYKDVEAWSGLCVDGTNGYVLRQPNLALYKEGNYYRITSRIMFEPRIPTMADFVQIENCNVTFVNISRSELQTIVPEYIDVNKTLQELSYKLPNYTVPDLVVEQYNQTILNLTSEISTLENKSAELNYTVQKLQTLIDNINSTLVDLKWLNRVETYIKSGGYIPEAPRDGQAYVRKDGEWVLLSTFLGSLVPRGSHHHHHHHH

T2: CoV-HKU1 Spike ectodomain (HKU1-CoV, UniProt Q0ZME7 14-1276)
T2 chain: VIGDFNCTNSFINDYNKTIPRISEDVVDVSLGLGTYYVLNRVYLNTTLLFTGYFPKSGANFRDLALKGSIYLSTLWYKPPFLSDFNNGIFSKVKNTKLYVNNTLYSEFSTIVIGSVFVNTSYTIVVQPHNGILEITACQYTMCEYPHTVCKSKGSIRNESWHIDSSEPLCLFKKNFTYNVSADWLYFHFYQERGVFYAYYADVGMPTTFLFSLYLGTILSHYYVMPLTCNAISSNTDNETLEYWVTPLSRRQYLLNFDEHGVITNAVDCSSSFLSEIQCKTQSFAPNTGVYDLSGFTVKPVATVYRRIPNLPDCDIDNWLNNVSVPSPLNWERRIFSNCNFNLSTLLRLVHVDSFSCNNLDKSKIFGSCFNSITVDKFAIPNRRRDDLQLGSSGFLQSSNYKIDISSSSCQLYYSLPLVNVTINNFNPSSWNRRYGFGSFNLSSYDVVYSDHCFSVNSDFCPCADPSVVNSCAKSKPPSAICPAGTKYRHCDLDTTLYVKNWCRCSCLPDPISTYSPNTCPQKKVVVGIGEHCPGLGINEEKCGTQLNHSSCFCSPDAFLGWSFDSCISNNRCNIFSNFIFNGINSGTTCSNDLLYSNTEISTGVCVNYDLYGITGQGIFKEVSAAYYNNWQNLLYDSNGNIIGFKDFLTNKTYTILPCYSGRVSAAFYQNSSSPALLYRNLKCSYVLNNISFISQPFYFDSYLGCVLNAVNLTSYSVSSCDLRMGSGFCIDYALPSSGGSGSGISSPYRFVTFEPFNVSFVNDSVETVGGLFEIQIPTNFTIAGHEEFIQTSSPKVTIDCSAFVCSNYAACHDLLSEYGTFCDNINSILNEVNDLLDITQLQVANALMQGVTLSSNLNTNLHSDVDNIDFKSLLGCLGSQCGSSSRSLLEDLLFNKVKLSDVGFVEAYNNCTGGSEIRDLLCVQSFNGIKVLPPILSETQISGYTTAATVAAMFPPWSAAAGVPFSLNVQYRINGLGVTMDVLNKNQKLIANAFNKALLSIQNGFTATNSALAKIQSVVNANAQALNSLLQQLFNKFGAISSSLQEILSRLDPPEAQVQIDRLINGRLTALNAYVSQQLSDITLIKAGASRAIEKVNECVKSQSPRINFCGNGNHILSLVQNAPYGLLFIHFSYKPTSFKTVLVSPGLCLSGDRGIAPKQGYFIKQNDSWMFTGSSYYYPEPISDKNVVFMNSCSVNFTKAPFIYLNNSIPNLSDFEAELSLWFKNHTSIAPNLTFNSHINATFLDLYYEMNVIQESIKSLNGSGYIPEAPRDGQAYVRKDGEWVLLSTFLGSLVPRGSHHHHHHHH

B1: Cv2.1353 (recombinant human IgG1) (antibody, V domains shown)
VH: EVQLVESGGGLVQPGGSLRLSCAASGVTVSSNYMNWVRQAPGKGLEWVSVIYSGGSTFYADSVKGRFIISRDNSKNTLYLQMNSLKTEDTAVYYCARDLGPMGFDIWGQGTMVTVSS
VL: DIQMTQSPSFLSASVGDRVTITCRASQGISSYLAWYQQKPGKAPKLLIYAASTLQSGVPSRFSGSGSGTEFTLTISSLQPEDFATYYCQQLNSDPPVTFGPGTKVDIKR
B2: Cv2.1169 (recombinant human IgG1) (antibody)
heavy: QVQLVQSGPEVKKPGTSVKVSCKASGFTFTTSAVQWVRQARGQRLEWIGWIVVGSGNTNYAQKFQERVTITRDMSTTTAYMELSSLRSEDTAVYYCAAPYCSGGTCLDGFDIWGQGTMVTVSSASTKGPSVFPLAPSSKSTSGGTAALGCLVKDYFPEPVTVSWNSGALTSGVHTFPAVLQSSGLYSLSSVVTVPSSSLGTQTYICNVNHKPSNTKVDKKVEPKSCDKTHTCPPCPAPELLGGPSVFLFPPKPKDTLMISRTPEVTCVVVDVSHEDPEVKFNWYVDGVEVHNAKTKPREEQYNSTYRVVSVLTVLHQDWLNGKEYKCKVSNKALPAPIEKTISKAKQPREPQVYTLPPSRDELTKNQVSLTCLVKGFYPSDIAVEWESNGQPENNYKTTPPVLDSDGSFFLYSKLTVDKSRWQQGNVFSCSVMHEALHNHYTQKSLSLSPGK
light: not shown
notes: also called Cv2.1169 IgG
B3: Cv2.3194 (recombinant human IgG1) (antibody, V domains shown)
VH: EVQLVESGGGLIQPGGSLRLSCAASGITVTSNYMSWVRQAPGKGLEWVSVIYPGGSTFYADSVKGRFTISRDNSKNTLYLQMNSLRAEDTAVYYCARDLVVYGMDVWGQGTTVTVSS
VL: EIVLTQSPGTLSLSPGERATLSCRASQSVSSSYLAWYQQKPGQAPRLLIYGASSRATGIPGRFSGSGSGTDFTLTISRLEPEDFAIYYCQQGVTFGGGTKVEIKR
B4: Cv2.5213 (recombinant human IgG1) (antibody, V domains shown)
VH: B3 VH with I27F, T30S, V50L, P53S, F58Y, V100N, V101Y, T111A
VL: B1 VL with F10S, E70D, N92D, D94Y, P95S, V97F
B5: Cv2.3235 (recombinant human IgG1) (antibody, V domains shown)
VH: B3 VH with I27F, T30S, S31R, P53S, L99G, V100D, V101Y
VL: DIQMTQSPSFLSASVGDRVTITCRASQGISSFLAWYQQKPGKAPKLLIYGASTLQSGVTSRFSGSGSGTEFTLTISSLQPEDFATYYCQRLDSYPPITFGQGTRLEIKR

One test deals with T1, CoV-229E Spike ectodomain. The test is described as follows: ELISA, coated spike ectodomain. For orientation: In an ELISA, binding on a coated surface is turned into a signal by an enzyme label.
B1: the binding result is listed as “no binding”.

With B2, the binding result is recorded as “no binding”.

In the case of B3, the binding result was “no binding”.

Take B4: the binding result was “no binding”.

B5: the binding result is listed as “no binding”.

A further test addresses T2, CoV-HKU1 Spike ectodomain. Kind of test: ELISA, coated spike ectodomain.
For B1, the binding result is “no binding”.

With B2, the binding result is listed as “no binding”.

For B3, the binding result was “no binding”.

In the case of B4, the binding result was “no binding”.

As for B5, the binding result is given as “no binding”.
